As a reminder, the Kd is the equilibrium constant for the complex coming apart.

The results in this text go back to publication PMC4900672, “Mechanism of Mitochondrial Transcription Factor A Attenuation of CpG-Induced Antibody Production”.

Common to all, as to test: fluorescence anisotropy; FA: 50 mM HEPES-Na pH 7.4, 150 mM NaCl, 1 mM DTT, 20 C, 500 pM FM-DNA, Hill fit; EMSA: 5 nM FM-DNA, 8% PAGE, 0.33x TBE
On the technique in general: Fluorescence polarisation rises when a labelled molecule tumbles more slowly, as on binding a larger partner.

The target in data set [1] is T1, TFAM HMG Box B (UniProt Q00059 155-219).
T1 sequence: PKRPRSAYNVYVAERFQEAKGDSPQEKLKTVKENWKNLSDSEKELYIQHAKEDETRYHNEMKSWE
The settings on record: protein: recombinant; label: 5'-6FAM; G-quadruplex possible (previous studies).

Data set [2] addresses T2, TFAM (UniProt Q00059 43-246).
T2 sequence: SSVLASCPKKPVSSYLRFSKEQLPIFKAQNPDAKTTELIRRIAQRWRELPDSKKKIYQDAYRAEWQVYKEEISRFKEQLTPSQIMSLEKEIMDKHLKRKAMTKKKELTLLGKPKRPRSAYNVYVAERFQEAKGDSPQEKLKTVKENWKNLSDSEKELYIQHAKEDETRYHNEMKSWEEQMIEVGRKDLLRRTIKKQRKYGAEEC
The settings on record: protein: recombinant, label: 5'-6FAM.

For data set [3], the target named is T3, TFAM HMG Box A (UniProt Q00059 50-118).
T3 sequence: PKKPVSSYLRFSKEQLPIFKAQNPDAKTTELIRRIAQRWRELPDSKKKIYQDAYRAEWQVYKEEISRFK
The conditions noted are these: protein: recombinant, label: 5'-6FAM.

[4] abbreviates: G-quadruplex possible (previous studies).

B1: CpG-A (PS) (XNA)
DNA: GGGGACGACGTCGTGGGGGGG
modifications: phosphorothioate (positions in Fig 1A)
On to B1, for which the equilibrium dissociation constant (Kd) amounted to 231 ± 30 nM in data set [1], 1.83 ± 0.07 nM in data set [2] (setting [4]) and 71.2 ± 38 nM in data set [3] (setting [4]).

B2: CpG-B (PD) (ssDNA)
DNA: TCGTCGTTTTGTCGTTTTGTCGTT
For B2, in data set [2] (single-stranded), the equilibrium dissociation constant (Kd) was 4.66 ± 0.2 nM.

B3: ssLSP (PD) (ssDNA)
DNA: TTAACAGTCACCCCCCAACTAACAC
Turning to B3, the Kd in data set [2] (single-stranded) came out at 10.2 ± 0.5 nM.

B4: CpG-B (PS) (XNA)
DNA: TCGTCGTTTTGTCGTTTTGTCGTT
modifications: phosphorothioate (positions in Fig 1A)
Turning to B4, the values for the Kd in data set [2] (single-stranded by CD) and in data set [3] (single-stranded by CD) were 1.3 ± 0.03 nM and 10.4 ± 1 nM, respectively.

B5: ssLSP (PS) (XNA)
DNA: TTAACAGTCACCCCCCAACTAACAC
modifications: phosphorothioate (positions in Fig 1A)
Take B5: the Kd in data set [2] (single-stranded) is 5.06 ± 0.1 nM.
